Biological target: cell-bound IgE on basophils of peanut-allergic subjects
Experiment: cell-based or functional assay

NNFGKLFEVKPDKKNPQLQ [Ara h 1 combined epitope peptide (409-427)] was tested, and the percentage of activated basophils, one subject was 8%.

— patent US20240350600A1
